Experimental findings from patent US20110301079A1 (INSTITUTO DI RICERCHE DI BIOLOGIA MOLECOLARE P ANGELETTI S …, published 2011) are described below.

What all share (assay): cell-based or functional assay
For assay [1], the target named is T1, mouse NMUR1-ATG (mouse, UniProt O55040 1-428).
T1 sequence (looked up): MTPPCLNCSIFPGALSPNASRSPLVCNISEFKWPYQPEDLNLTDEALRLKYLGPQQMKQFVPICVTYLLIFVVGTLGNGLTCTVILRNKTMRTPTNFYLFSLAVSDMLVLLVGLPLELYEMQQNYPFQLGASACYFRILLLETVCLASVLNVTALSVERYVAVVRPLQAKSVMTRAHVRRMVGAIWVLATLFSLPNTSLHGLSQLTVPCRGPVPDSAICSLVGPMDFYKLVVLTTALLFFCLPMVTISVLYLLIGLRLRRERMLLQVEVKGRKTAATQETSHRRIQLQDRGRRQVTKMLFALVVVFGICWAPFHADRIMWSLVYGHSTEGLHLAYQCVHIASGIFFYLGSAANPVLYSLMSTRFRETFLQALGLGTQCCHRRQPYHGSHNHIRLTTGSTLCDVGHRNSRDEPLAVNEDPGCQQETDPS

The target of assay [2] is T2, dog NMUR1-ATG (dog, UniProt A0A8I3S7S8 1-422).
T2 sequence: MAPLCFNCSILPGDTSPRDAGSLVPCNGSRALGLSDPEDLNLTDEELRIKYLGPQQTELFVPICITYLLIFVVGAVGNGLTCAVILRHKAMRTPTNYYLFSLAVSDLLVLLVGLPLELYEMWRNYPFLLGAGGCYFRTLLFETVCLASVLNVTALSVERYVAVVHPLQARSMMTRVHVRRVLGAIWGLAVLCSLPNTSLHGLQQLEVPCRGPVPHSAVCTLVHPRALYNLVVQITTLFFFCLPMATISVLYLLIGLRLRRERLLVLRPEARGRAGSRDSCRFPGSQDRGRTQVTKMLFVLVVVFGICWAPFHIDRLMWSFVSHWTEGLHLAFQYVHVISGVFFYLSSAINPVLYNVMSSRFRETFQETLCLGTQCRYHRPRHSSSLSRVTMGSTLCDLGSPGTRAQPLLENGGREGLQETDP

Assay [3] addresses dog NMUR2 (dog).
The target in assay [4] is mouse NMUR2 (mouse, UniProt Q8BZ39 1-395).
Assay [5] has as its target human NMUR2 (human, UniProt Q9GZQ4 1-415).
Assay [6] has as its target T3, human NMUR1 (human, UniProt Q9HB89 1-426).
T3 sequence (looked up): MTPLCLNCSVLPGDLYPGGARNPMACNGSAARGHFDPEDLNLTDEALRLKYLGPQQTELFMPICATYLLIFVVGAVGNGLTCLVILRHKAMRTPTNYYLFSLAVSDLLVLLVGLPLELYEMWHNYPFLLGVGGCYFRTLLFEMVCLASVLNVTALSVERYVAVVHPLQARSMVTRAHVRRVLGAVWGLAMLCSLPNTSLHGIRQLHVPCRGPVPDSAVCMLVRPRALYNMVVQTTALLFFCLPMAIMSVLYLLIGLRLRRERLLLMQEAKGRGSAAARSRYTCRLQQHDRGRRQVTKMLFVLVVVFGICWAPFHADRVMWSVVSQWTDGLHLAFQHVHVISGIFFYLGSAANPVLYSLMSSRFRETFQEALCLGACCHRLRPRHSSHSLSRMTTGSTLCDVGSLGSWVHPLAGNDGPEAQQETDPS

Groups on a side chain read outwards from the residue. *: point of attachment. cholesteroyl = cholesterol group linked to a cysteine residue via the side-chain thiol; Succinimide(1-Et,3-yl) = CCN1C(=O)CC(*)C1=O

Chain of human NMUR2 (Q9GZQ4 whole entry): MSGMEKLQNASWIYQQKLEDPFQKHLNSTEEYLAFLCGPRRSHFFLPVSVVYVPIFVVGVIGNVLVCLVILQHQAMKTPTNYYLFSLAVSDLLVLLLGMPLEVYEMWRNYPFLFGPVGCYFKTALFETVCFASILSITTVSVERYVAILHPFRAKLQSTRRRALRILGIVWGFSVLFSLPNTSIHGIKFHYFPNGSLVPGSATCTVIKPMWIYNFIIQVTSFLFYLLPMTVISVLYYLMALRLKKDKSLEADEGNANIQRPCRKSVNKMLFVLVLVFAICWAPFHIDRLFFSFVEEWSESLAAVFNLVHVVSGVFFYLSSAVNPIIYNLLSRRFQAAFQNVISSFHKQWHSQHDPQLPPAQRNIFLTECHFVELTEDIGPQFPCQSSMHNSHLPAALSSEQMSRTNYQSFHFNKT
Chain of mouse NMUR2 (Q8BZ39 whole entry): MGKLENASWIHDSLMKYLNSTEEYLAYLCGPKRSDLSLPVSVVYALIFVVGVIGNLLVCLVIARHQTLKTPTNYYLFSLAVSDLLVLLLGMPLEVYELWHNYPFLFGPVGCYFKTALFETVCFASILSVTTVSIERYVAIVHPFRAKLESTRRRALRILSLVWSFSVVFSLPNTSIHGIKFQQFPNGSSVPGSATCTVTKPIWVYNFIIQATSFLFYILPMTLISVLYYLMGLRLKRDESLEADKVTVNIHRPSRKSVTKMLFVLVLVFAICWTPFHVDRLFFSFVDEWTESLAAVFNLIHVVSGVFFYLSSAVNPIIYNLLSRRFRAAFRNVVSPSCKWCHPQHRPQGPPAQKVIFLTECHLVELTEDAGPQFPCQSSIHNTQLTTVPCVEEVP

B1: NMS2 (Ac-C3ILQRGSGTAAVDFTKKDHTATWGRPFFLFRPRN-CONH2) (peptide)
peptide: Ac-C(cholesteroyl)ILQRGSGTAAVDFTKKDHTATWGRPFFLFRPRN-NH2
With B1, the “% Activity (maximum response at 1 µM compared to the human NMU-25 response)” value (“% Activity” for short) in assay [1] is 39%; in assay [2], 46%; in assay [3] it was 84%; in assay [4], 32%; in assay [5], 16%; in assay [6], 11%.

B2: NMS1 (Ac-C2ILQRGSGTAAVDFTKKDHTATWGRPFFLFRPRN-CONH2) (peptide)
peptide: Ac-C([maleimide-(PEG)2 40 kDa])ILQRGSGTAAVDFTKKDHTATWGRPFFLFRPRN-NH2
In the case of B2, the “% Activity” value in assay [1] amounted to 82%; in assay [2], 97%; in assay [3] it was 78%; in assay [4], 99%; in assay [5], 81%; in assay [6], 91%.

B3: NMS3 (Ac-C1ILQRGSGTAAVDFTKKDHTATWGRPFFLFRPRN-CONH2) (peptide)
peptide: Ac-C(Succinimide(1-Et,3-yl))ILQRGSGTAAVDFTKKDHTATWGRPFFLFRPRN-NH2
SMILES: CC[C@H](C)[C@H](NC(=O)[C@H](CSC1CC(=O)N(CC)C1=O)NC(C)=O)C(=O)N[C@@H](CC(C)C)C(=O)N[C@@H](CCC(N)=O)C(=O)N[C@@H](CCCNC(=N)N)C(=O)NCC(=O)N[C@@H](CO)C(=O)NCC(=O)N[C@H](C(=O)N[C@@H](C)C(=O)N[C@@H](C)C(=O)N[C@H](C(=O)N[C@@H](CC(=O)O)C(=O)N[C@@H](Cc1ccccc1)C(=O)N[C@H](C(=O)N[C@@H](CCCCN)C(=O)N[C@@H](CCCCN)C(=O)N[C@@H](CC(=O)O)C(=O)N[C@@H](Cc1c[nH]cn1)C(=O)N[C@H](C(=O)N[C@@H](C)C(=O)N[C@H](C(=O)N[C@@H](Cc1c[nH]c2ccccc12)C(=O)NCC(=O)N[C@@H](CCCNC(=N)N)C(=O)N1CCC[C@H]1C(=O)N[C@@H](Cc1ccccc1)C(=O)N[C@@H](Cc1ccccc1)C(=O)N[C@@H](CC(C)C)C(=O)N[C@@H](Cc1ccccc1)C(=O)N[C@@H](CCCNC(=N)N)C(=O)N1CCC[C@H]1C(=O)N[C@@H](CCCNC(=N)N)C(=O)N[C@@H](CC(N)=O)C(N)=O)[C@@H](C)O)[C@@H](C)O)[C@@H](C)O)C(C)C)[C@@H](C)O
As for B3, the “% Activity” value was determined as 98% in assay [1]; 101% in assay [2]; 107% in assay [3]; 108% in assay [4]; 105% in assay [5]; 97% in assay [6].

B4: NMS4 (Ac-C4ILQRGSGTAAVDFTKKDHTATWGRPFFLFRPRN-CONH2) (peptide)
peptide: Ac-C([maleimide-PEG 40 kDa])ILQRGSGTAAVDFTKKDHTATWGRPFFLFRPRN-NH2
With B4, the “% Activity” value was 95% in assay [1]; 81% in assay [2]; 101% in assay [3]; 104% in assay [4]; 94% in assay [5]; 88% in assay [6].

B5: NMS5 (Pam-ILQRGSGTAAVDFTKKDHTATWGRPFFLFRPRN-CONH2) (peptide)
peptide: ILQRGSGTAAVDFTKKDHTATWGRPFFLFRPRN
HELM: PEPTIDE1{[CCCCCCCCCCCCCCCC(=O)[*:2]].I.L.Q.R.G.S.G.T.A.A.V.D.F.T.K.K.D.H.T.A.T.W.G.R.P.F.F.L.F.R.P.R.N.[am]}$$$$V2.0
SMILES: CCCCCCCCCCCCCCCC(=O)N[C@H](C(=O)N[C@@H](CC(C)C)C(=O)N[C@@H](CCC(N)=O)C(=O)N[C@@H](CCCNC(=N)N)C(=O)NCC(=O)N[C@@H](CO)C(=O)NCC(=O)N[C@H](C(=O)N[C@@H](C)C(=O)N[C@@H](C)C(=O)N[C@H](C(=O)N[C@@H](CC(=O)O)C(=O)N[C@@H](Cc1ccccc1)C(=O)N[C@H](C(=O)N[C@@H](CCCCN)C(=O)N[C@@H](CCCCN)C(=O)N[C@@H](CC(=O)O)C(=O)N[C@@H](Cc1c[nH]cn1)C(=O)N[C@H](C(=O)N[C@@H](C)C(=O)N[C@H](C(=O)N[C@@H](Cc1c[nH]c2ccccc12)C(=O)NCC(=O)N[C@@H](CCCNC(=N)N)C(=O)N1CCC[C@H]1C(=O)N[C@@H](Cc1ccccc1)C(=O)N[C@@H](Cc1ccccc1)C(=O)N[C@@H](CC(C)C)C(=O)N[C@@H](Cc1ccccc1)C(=O)N[C@@H](CCCNC(=N)N)C(=O)N1CCC[C@H]1C(=O)N[C@@H](CCCNC(=N)N)C(=O)N[C@@H](CC(N)=O)C(N)=O)[C@@H](C)O)[C@@H](C)O)[C@@H](C)O)C(C)C)[C@@H](C)O)[C@@H](C)CC
For B5, the “% Activity” value stood at 83% in assay [1]; 82% in assay [2]; 100% in assay [3]; 78% in assay [4]; 93% in assay [5]; 85% in assay [6].

B6: native human Neuromedin S peptide (NMS) (peptide)
peptide: H-ILQRGSGTAAVDFTKKDHTATWGRPFFLFRPRN-NH2
With B6, the “% Activity” value in assay [1] was 102%; in assay [2], 100%; in assay [3], 104%; in assay [4], 111%; in assay [5], 107%; in assay [6], 97%.
